Results taken from patent US20260364215A1, “Radiopharmaceutical Compositions Targeting Ephrin Type-A Receptor 2 and Uses Thereof” (PeptiDream Inc., priority 2022, published 2026).
Where two headings read alike, the source gives them in different places. Numbered stars: 1 amine (or outer) side, 2 acyl side, 3 side chain; on linkers, the order of the positions; unused ones are H or OH. Bridge positions count the residues as written; N and C are the ends. Square brackets hold non-standard residues; d marks the D form. Side chains are listed from the residue outwards. Peptide text beside a SMILES is read from it. * marks the point of attachment. DOTA(Lu) = O=C1CN2CCN3CCN(CC(=O)*)CCN(CC2)CC(=O)[O][Lu]([O]1)[O]C(=O)C3; NH(1-deoxy-D-glucityl) = OC[C@@H](O)[C@@H](O)[C@H](O)[C@@H](O)CN*; DOTA = O=C(O)CN1CCN(CC(=O)O)CCN(CC(=O)*)CCN(CC(=O)O)CC1; Trp(1-Me,7-Cl) = Cn1cc(C[C@H](N)C(=O)O)c2cccc(Cl)c21; dPhe(3-CONH2) = NC(=O)c1cccc(C[C@@H](N)C(=O)O)c1; NMePhe(3-CN) = CN[C@@H](Cc1cccc(C#N)c1)C(=O)O; Piperazinyl(4-CH2COOH) = O=C(O)CN1CCN(*)CC1; Trp(1-Me) = Cn1cc(C[C@H](N)C(=O)O)c2ccccc21; PEG8 = NCCOCCOCCOCCOCCOCCOCCOCCOCCC(=O)O; NMe3Pal = CN[C@@H](Cc1cccnc1)C(=O)O; NMeF = CN[C@@H](Cc1ccccc1)C(=O)O; Gly(cBu) = N[C@H](C(=O)O)C1CCC1; Aad = N[C@@H](CCCC(=O)O)C(=O)O; NMeN = CN[C@@H](CC(N)=O)C(=O)O; PEG2 = NCCOCCOCCC(=O)O; AEEA = NCCOCCOCC(=O)O; CO = O=C([*:1])[*:2]; βAla = NCCC(=O)O

How the values were obtained:
[1] = biological target: T1, Recombinant Human EphA2 Fc Protein (Homo sapiens, UniProt P29317); assay: Interaction analysis (kinetics, KD) of peptides and conjugates against EphA2 by SPR, Biacore T200, single-cycle kinetics (Examples B15 and B22); type: binding
T1 construct: purchased Elabscience
T1 sequence (P29317 24-534 limits assumed): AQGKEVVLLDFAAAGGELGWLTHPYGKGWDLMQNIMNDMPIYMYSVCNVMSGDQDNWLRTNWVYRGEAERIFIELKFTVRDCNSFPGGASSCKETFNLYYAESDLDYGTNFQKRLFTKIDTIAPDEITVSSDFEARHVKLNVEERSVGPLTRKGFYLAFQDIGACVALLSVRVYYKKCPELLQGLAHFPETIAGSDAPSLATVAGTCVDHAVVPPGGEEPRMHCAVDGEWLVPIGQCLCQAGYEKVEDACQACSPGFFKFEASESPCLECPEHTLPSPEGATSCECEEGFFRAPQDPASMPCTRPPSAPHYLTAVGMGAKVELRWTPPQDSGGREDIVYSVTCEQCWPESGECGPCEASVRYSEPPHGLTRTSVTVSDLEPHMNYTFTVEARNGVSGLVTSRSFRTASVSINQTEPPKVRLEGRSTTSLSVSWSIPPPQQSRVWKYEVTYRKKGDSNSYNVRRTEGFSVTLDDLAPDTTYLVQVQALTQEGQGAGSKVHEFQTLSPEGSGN
In short: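 Biacore T200 SPR with Fc-tagged human EphA2 captured via anti-human antibody; running buffer HBS-P+ pH 7.4 with 1% DMSO, 25 °C. Five serial dilutions of peptide or conjugate run by single-cycle kinetics; KD from ka and kd after baseline subtraction.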

[2] = Plasma stability (% remaining of test compound in CD-1 (ICR) mouse plasma at 37 °C; Example C1); type: in vitro ADME; settings: for % Remaining Mouse: 0 min; for remaining at 2 h, 2 µM: pH 7.4, 120 min; for half-life at 2 µM: pH 7.4, read-out: T1/2 (min) Mouse
Description: Example C1. Plasma Stability
The pooled frozen CD-1 (ICR) mouse plasma was thawed in a water bath at 37 °C prior to experiment. Plasma was centrifuged at 4000 rpm for 5 min and the clots were removed if any. pH was adjusted to 7.4±0.1 if required.
Plasma (98 μL) and test compounds (2 μL, 100 μM, in DMSO) or reference compound propantheline bromide (2 μL, 100 μM in 40% v/v MeOH/H2O) were added to the individual wells of a 96-well microtiter plate in duplicate. The plate was incubated at 37 °C. During the incubation, aliquots were withdrawn at 0, 10, 30, 60, 120, and 300 minutes. 100 μL 4% H3PO4 and 800 μL of stop solution (200 ng/mL tolbutamide and 200 ng/mL labetalol in 100% CH3CN) were added to precipitate unwanted proteins. After mixing thoroughly, the quenched aliquots were centrifuged at 4,000 rpm for 20 min. Aliquots (100 μL) of supernatant were transferred to a new plate. The samples were shaken at 800 rpm for 10 min before performing LC-MS/MS analysis.
The analytes were detected by a multiple reaction monitoring method using a SCIEX Triple Quad 6500+ system equipped with an ACQUITY UPLC HSS T3 column (100 Å, 1.8 μm, 2.1 mm×30 mm). Mobile phase A: water with 0.1% formic acid; Mobile phase B: CH3CN with 0.1% formic acid.
(§1) The % remaining of test compound after incubation in plasma was calculated using the following equation:
(§2) % Remaining=100×(PAR(t)/PAR(t0)), where PAR is the peak area ratio of analyte versus internal standard (IS)

[3] = Plasma stability (% remaining and T1/2 of test compound in human plasma; Table C1); type: in vitro ADME; settings: for % Remaining Human: 0 min; for remaining at 2 h: 120 min
Description: as §1, §2

[4] = conjugates, Biacore T200 according to Example B15, Table B16, read-out: SPR Kd

| Compound | Kd [1, 4] [nM] | % Remaining Mouse [2] [%] | remaining at 2 h, 2 µM [2] [%] | half-life at 2 µM [2] [min] | half-life [3] [h] | % Remaining Human [3] [%] | remaining at 2 h [3] [%] | further results |
| --- | --- | --- | --- | --- | --- | --- | --- | --- |
| CC(C)C[C@@H]1NC(=O)[C@H](CC(N)=O)NC(=O)[C@H](Cc2cccnc2)N(C)C(=O)[C@@H](C)NC(=O)CSC[C@@H](C(=O)N[C@H](CCCCNC(=O)CN2CCN(CC(=O)O)CCN(CC(=O)O)CCN(CC(=O)O)CC2)C(N)=O)NC(=O)[C@H](CCCC(N)=O)NC(=O)[C@H]([C@@H](C)O)NC(=O)[C@H](Cc2cn(C)c3ccccc23)NC(=O)[C@H](CCCCNC(=O)N2CCN(CC(=O)O)CC2)NC(=O)[C@H](Cc2cn(C)c3ccccc23)NC(=O)[C@H](Cc2ccccc2)N(C)C(=O)[C@H](CCCC(N)=O)NC1=O.[Lu+3] [PDC_EphA2-00008093-C302] ({CH2CO}-[dA][NMe3Pal]NL[Aad](NH2)[NMeF][Trp(1-Me)]K([CO-Piperazinyl(4-CH2COOH)])[Trp(1-Me)]T[Aad](NH2)C[dK](DOTA)-NH2; thioether N-12) | < 1 | 100.0 | 101 | > 289 | > 4.82 | 100.0 | 102 | – |
| CC(C)C[C@@H]1NC(=O)[C@H](CC(N)=O)NC(=O)[C@H](Cc2cccnc2)N(C)C(=O)[C@@H](C)NC(=O)CSC[C@@H](C(=O)N[C@H](CCCCNC(=O)CN(C)C(=O)CN(C)C(=O)CN(C)C(=O)CN(C)C(=O)CN(C)C(=O)CN(C)C(=O)CN(C)C(=O)CN(C)C(=O)CN(C)C(=O)CN(C)C(=O)CCNC(=O)CN2CCN(CC(=O)O)CCN(CC(=O)O)CCN(CC(=O)O)CC2)C(N)=O)NC(=O)[C@H](CCCC(N)=O)NC(=O)[C@H]([C@@H](C)O)NC(=O)[C@H](Cc2cn(C)c3ccccc23)NC(=O)[C@H](CCCCNC(=O)N2CCN(CC(=O)O)CC2)NC(=O)[C@H](Cc2cn(C)c3ccccc23)NC(=O)[C@H](Cc2ccccc2)N(C)C(=O)[C@H](CCCC(N)=O)NC1=O.[Lu+3] [PDC_EphA2-00008093-C310] | < 1 | 100.0 | 107 | > 289 | > 4.82 | 100.0 | 99 | – |
| CC(C)C[C@@H]1NC(=O)[C@H](CC(N)=O)NC(=O)[C@H](Cc2ccccc2)N(C)C(=O)[C@@H](C)NC(=O)CSC[C@@H](C(=O)NCCC(=O)N[C@H](CCCCNC(=O)COCCOCCNC(=O)CCOCCOCCOCCOCCOCCOCCOCCOCCNC(=O)CN2CCN(CC(=O)O)CCN(CC(=O)O)CCN(CC(=O)O)CC2)C(N)=O)NC(=O)[C@H](CCC(=O)O)NC(=O)[C@H]([C@@H](C)O)NC(=O)[C@H](Cc2cn(C)c3ccccc23)NC(=O)[C@H](C(C)C)NC(=O)[C@H](Cc2cn(C)c3ccccc23)NC(=O)[C@H](Cc2ccccc2)N(C)C(=O)[C@H](CCCC(=O)O)NC1=O.[Lu+3] [PDC_EphA2-00001417-C306] ({CH2CO}-[dA][NMeF]NL[Aad][NMeF][Trp(1-Me)]V[Trp(1-Me)]TEC[βAla][dK]([AEEA-PEG8-DOTA])-NH2; thioether N-12) | 1 to 10 | 100 | 91 | > 289 | > 4.82 | 100 | 99 | – |
| CC(C)C[C@@H]1NC(=O)[C@H](CC(N)=O)NC(=O)[C@H](Cc2cccnc2)N(C)C(=O)[C@@H](Cc2cccc(C(N)=O)c2)NC(=O)CSC[C@@H](C(N)=O)NC(=O)[C@H](CCCCNC(=O)CN2CCN(CC(=O)O)CCN(CC(=O)O)CCN(CC(=O)O)CC2)NC(=O)[C@H]([C@@H](C)O)NC(=O)[C@H](Cc2cn(C)c3ccccc23)NC(=O)[C@H](CCC(=O)NC[C@H](O)[C@@H](O)[C@H](O)[C@H](O)CO)NC(=O)[C@H](Cc2cn(C)c3c(Cl)cccc23)NC(=O)[C@H](CC(N)=O)N(C)C(=O)[C@H](CCCC(N)=O)NC1=O.[Lu+3] [PDC_EphA2-00026716] ({CH2CO}-[dPhe(3-CONH2)][NMe3Pal]NL[Aad](NH2)[NMeN][Trp(1-Me,7-Cl)]E(NH(1-deoxy-D-glucityl))[Trp(1-Me)]TK(DOTA)C-NH2; thioether N-12) | < 1 | – | – | – | – | – | – | – |
| C[C@H]1NC(=O)CSC[C@@H](C(=O)N[C@H](CCCCNC(=O)CN2CCN(CC(=O)O)CCN(CC(=O)O)CCN(CC(=O)O)CC2)C(N)=O)NC(=O)[C@H](CCCC(N)=O)NC(=O)[C@H]([C@@H](C)O)NC(=O)[C@H](Cc2cn(C)c3ccccc23)NC(=O)[C@H](CCC(=O)NC[C@H](O)[C@@H](O)[C@H](O)[C@H](O)CO)NC(=O)[C@H](Cc2cn(C)c3ccccc23)NC(=O)[C@H](CC(N)=O)N(C)C(=O)[C@H](CCCC(N)=O)NC(=O)[C@H](C2CCC2)NC(=O)[C@H](CC(N)=O)NC(=O)[C@H](Cc2ccccc2)N(C)C1=O.[Lu+3] [PDC_EphA2-00013703-C302] ({CH2CO}-[dA][NMeF]N[Gly(cBu)][Aad](NH2)[NMeN][Trp(1-Me)]E(NH(1-deoxy-D-glucityl))[Trp(1-Me)]T[Aad](NH2)C[dK](DOTA)-NH2; thioether N-12) | < 1 | – | – | – | – | – | – | – |
| C[C@@H](O)[C@@H]1NC(=O)[C@H](Cc2cn(C)c3ccccc23)NC(=O)[C@H](CCC(=O)NC[C@H](O)[C@@H](O)[C@H](O)[C@H](O)CO)NC(=O)[C@H](Cc2cn(C)c3c(Cl)cccc23)NC(=O)[C@H](CC(N)=O)N(C)C(=O)[C@H](CCCC(N)=O)NC(=O)[C@H](C2CCC2)NC(=O)[C@H](CC(N)=O)NC(=O)[C@H](Cc2cccc(C#N)c2)N(C)C(=O)[C@@H](Cc2cccc(C(N)=O)c2)NC(=O)CSC[C@@H](C(=O)N[C@H](CCCCNC(=O)CN2CCN3CCN4CCN(CC2)CC(=O)[O][Lu]([O]C(=O)C3)[O]C(=O)C4)C(N)=O)NC(=O)[C@H](CCCC(N)=O)NC1=O [PDC_EphA2-00022615-C302] ({CH2CO}-[dPhe(3-CONH2)][NMePhe(3-CN)]N[Gly(cBu)][Aad](NH2)[NMeN][Trp(1-Me,7-Cl)]E(NH(1-deoxy-D-glucityl))[Trp(1-Me)]T[Aad](NH2)C[dK](DOTA(Lu))-NH2; thioether N-12) | – | – | – | – | – | – | – | Kd [1]: < 1 nM |
| CC(C)C[C@@H]1NC(=O)[C@H](CC(N)=O)NC(=O)[C@H](Cc2cccnc2)N(C)C(=O)[C@@H](C)NC(=O)CSC[C@@H](C(=O)NCCC(=O)N[C@H](CCCCNC(=O)CCOCCOCCNC(=O)CCOCCOCCOCCOCCOCCOCCOCCOCCNC(=O)CN2CCN(CC(=O)O)CCN(CC(=O)O)CCN(CC(=O)O)CC2)C(N)=O)NC(=O)[C@H](CCCC(N)=O)NC(=O)[C@H]([C@@H](C)O)NC(=O)[C@H](Cc2cn(C)c3ccccc23)NC(=O)[C@H](CCCCNC(=O)N2CCN(CC(=O)O)CC2)NC(=O)[C@H](Cc2cn(C)c3ccccc23)NC(=O)[C@H](Cc2ccccc2)N(C)C(=O)[C@H](CCCC(N)=O)NC1=O.[Lu+3] [PDC_EphA2-00008093-C304] ({CH2CO}-[dA][NMe3Pal]NL[Aad](NH2)[NMeF][Trp(1-Me)]K([CO-Piperazinyl(4-CH2COOH)])[Trp(1-Me)]T[Aad](NH2)C[βAla][dK]([PEG2-PEG8-DOTA])-NH2; thioether N-12) | < 1 | – | – | – | – | – | – | – |
| CC(=O)NCCCC[C@@H](NC(=O)CCNC(=O)[C@@H]1CSCC(=O)N[C@H](C)C(=O)N(C)[C@@H](Cc2cccnc2)C(=O)N[C@@H](CC(N)=O)C(=O)N[C@@H](CC(C)C)C(=O)N[C@@H](CCCC(=O)O)C(=O)N(C)[C@@H](Cc2ccccc2)C(=O)N[C@@H](Cc2cn(C)c3ccccc23)C(=O)N[C@@H](C(C)C)C(=O)N[C@@H](Cc2cn(C)c3ccccc23)C(=O)N[C@@H]([C@@H](C)O)C(=O)N[C@@H](CCC(=O)O)C(=O)N1)C(N)=O [PDC_EphA2-00008083] ({CH2CO}-[dA][NMe3Pal]NL[Aad][NMeF][Trp(1-Me)]V[Trp(1-Me)]TEC[βAla][dK](Ac)-NH2; thioether N-12) | – | – | – | – | – | – | – | Kd ([1]; peptides, Biacore T200, 25 °C, Table B12, read-out: SPR Kd): < 1 nM |
| C[C@@H](O)[C@@H]1NC(=O)[C@H](Cc2cn(C)c3ccccc23)NC(=O)[C@H](CCC(=O)NC[C@H](O)[C@@H](O)[C@H](O)[C@H](O)CO)NC(=O)[C@H](Cc2cn(C)c3c(Cl)cccc23)NC(=O)[C@H](Cc2cccnc2)N(C)C(=O)[C@H](CCCC(N)=O)NC(=O)[C@H](C2CCC2)NC(=O)[C@H](CC(N)=O)NC(=O)[C@H](Cc2cccnc2)N(C)C(=O)[C@@H](Cc2cccc(C(N)=O)c2)NC(=O)CSC[C@@H](C(=O)N[C@H](CCCCNC(=O)CN2CCN(CC(=O)O)CCN(CC(=O)O)CCN(CC(=O)O)CC2)C(N)=O)NC(=O)[C@H](CCCC(N)=O)NC1=O.[Lu+3] [PDC_EphA2-00019437-C302] ({CH2CO}-[dPhe(3-CONH2)][NMe3Pal]N[Gly(cBu)][Aad](NH2)[NMe3Pal][Trp(1-Me,7-Cl)]E(NH(1-deoxy-D-glucityl))[Trp(1-Me)]T[Aad](NH2)C[dK](DOTA)-NH2; thioether N-12) | < 1 | – | – | – | – | – | – | – |
